Where two headings read alike, the source gives them in different places.
How the values were obtained:
[1] = target: T1, human α-synuclein pre-formed fibrils (Human Alpha Synuclein Pre-formed Fibrils Type II, StressMarq SPR-317) (human, UniProt P37840 1-140); experiment: sandwich ELISA, antibody coated, α-syn PFF added, 7B7-biotin detection
Procedure: (§1) Specifically, the antibodies were diluted with PBS by six-fold serial dilution from 400 nM to 0.009 nM. The diluted antibodies were added to a 96-well plate at 100 μL/well for coating. The plate was sealed and incubated at 4° C. for 16 hours. After washing with phosphate-buffered saline with Tween® (PBS-T; 0.05% Tween® 20) five times, the plate was blocked with 5% BSA in PBS 200 μL/well at 37° C. for 2 hours. After washing with PBS-T five times, α-syn PFF (2 μg/mL, 100 μL/well in 2% BSA in PBS) was added to the plate and incubated at 37° C. for 2 hours. After washing with PBS-T five times, 7B7-biotin antibody (anti-α-syn antibody; 1 μg/mL/100 μL/well, in 2% BSA in PBS) was added and incubated at 37° C. for 2 hours. After washing with PBS-T five times, the plate was incubated with horseradish peroxidase (HRP)-bound streptavidin in PBS with 2% BSA (1:5000, 1 mg/mL stock, 20 ng/well, 100 μL/well) at 37° C. for 1 hour. After washing with PBS-T five times, 3,3′,5,5′-tetramethylbenzidine (TMB) (100 μL/well) was added and incubated at room temperature for 5 minutes. The reaction was stopped by the addition of 0.5 N H₂SO₄ (50 μL/well). Optical absorbance at 450 nm was measured by using a plate reader, with absorbance at 650 nm subtracted from the reading.

[2] = target: T1, human α-synuclein pre-formed fibrils …; experiment: as above; remark: listed apart in the source
Procedure: as §1

[3] = target: human α-synuclein oligomers (Dopamine HCL Stabilized Human Recombinant Alpha Synuclein Oligomers, StressMarq … (human, UniProt P37840 1-140)); experiment: sandwich ELISA, antibody coated, oligomeric α-syn added, 7B7-biotin detection
Procedure: Human α-syn oligomers from StressMarq (Dopamine HCL Stabilized Human Recombinant Alpha Synuclein Oligomers, SPR-466) was used as the oligomeric α-syn in the assay.
In this sandwich ELISA, test antibodies were diluted with PBS by five-fold serial dilution from 80 nM to 0.005 nM. The serially diluted antibodies were added to a 96-well plate at 100 μL/well for coating. The plate was sealed and incubated at 4° C. for 16 hours. After washing with PBS-T five times, the plate was blocked with 5% BSA in PBS 200 μL/well at 37° C. for 2 hours. After washing with PBS-T five times, oligomeric α-syn (2 μg/mL, 100 μL/well in 2% BSA in PBS) was added and incubated at 37° C. for 2 hours. After washing with PBS-T five times, 7B7-biotin antibody (1 μg/mL, 100 μL/well, in 2% BSA in PBS) were added and incubated at 37° C. for 2 hours. After washing with PBS-T five times, the plate was incubated with Streptavidin-HRP in 2% BSA in PBS (1:5000, 1 mg/mL stock, 20 ng/well, 100 μL/well) at 37° C. for 1 hour. After washing with PBS-T five times, TMB (100 μL/well) was added and incubated at RT for 5 minutes. The reaction was stopped by the addition of 0.5 N H₂SO₄ (50 μL/well).

[4] = target: T1, human α-synuclein pre-formed fibrils …; experiment: SPR Biacore T200, antibody captured on Protein A chip, α-syn PFF analyte, 1:1 model
Procedure: The equipment used was Biacore® (GE Healthcare, Model T200). Protein A (GE Healthcare, Cat: 29-1275-56) was used as a chip, 10 mM glycine-HCl pH 1.5 (GE Healthcare, Cat: BR-1003-54) was used as a regeneration buffer, and HBS-EP was used as a running buffer and an analyte dilution and sample dilution buffer. […] A capture phase was carried out at a contact time of 60 seconds and a flow rate of 30 μL/min was used for a stabilization period of 60 seconds, with the target resonance units (RU) of fibril set to 10 (theoretical). In an association phase, the association time was set to 60 seconds and a flow rate was set to 60 μL/min. In a dissociation phase, the dissociation time was set to 180 seconds, and a flow rate was set to 60 μL/min. In a regeneration phase, the flow rate was set to 30 μL/min, and the regeneration time was set to 60 seconds. A 1:1 binding model was used for fitting, and the Biacore® T200 Evaluation software (GE Healthcare) was used for the evaluation.

[5] = target: T1, human α-synuclein pre-formed fibrils …; experiment: sandwich ELISA, antibody coated, α-syn PFF added, 7B7-biotin detection; remark: listed apart in the source
Procedure: as §1

[6] = target: T1, human α-synuclein pre-formed fibrils …; experiment: as above; remark: listed apart in the source
Procedure: as §1

Row | Binder | Kd [4] [nM] | koff [4] [s⁻¹] | kon [4] [M⁻¹ s⁻¹] | EC50 [6] [nM] | further results
1 | hu1E4(V2_VL2) (antibody, human IgG1, V domains shown, Monospecific; human IgG1 and kappa constant regions) VH: QVQLVQSGAEVKKPGASVKVSCKASGYTFTNYLIEWVRQAPGQGLEWIGVINPGSGGTNYNEKFKGKVTLTADKSISTAYMELSRLRSDDTAVYYCASGNYDTYWGQGTLVTVSS VL: DVVMTQTPLSLSVTPGQPASISCRSSQSLVHSNGNTYLHWYLQKPGQSPQLLIYKVSNRFSGVPDRFSGSGSGTDFTLKISRVEAEDVGVYYCSQSTHVPRTFGQGTKLEIK | – | – | – | – | EC50 [1]: 0.57 nM
2 | recombinant mouse 1E4 (antibody, V domains shown, also called rm1E4) VH: QVQLQQSGAELVRPGTSVKVSCKASGYAFTNYLIEWVKQRPGQGLEWIGVINPGSGGTNYNEKFKGKATLTADKSSSTAYMQLSSLTSDDSAVYFCASGNYDTYWGQGTLVTVSA VL: DVVMTQTPLSLPVSLGDQASISCRSSQSLVHSNGNTYLHWYLQKPGQSPKLLIYKVSNRFSGVPDRFSGSGSGTDFTLKISRVEAEDLGVYFCSQSTHVPRTFGGGTKLEIK | – | – | – | – | EC50 [2]: 2.59 nM
3 | mouse hybridoma 1E4 (antibody, V domains shown, Mouse 1E4 made by the hybridoma; also called hy1E4; mouse 1E4 antibody) VH: QVQLQQSGAELVRPGTSVKVSCKASGYAFTNYLIEWVKQRPGQGLEWIGVINPGSGGTNYNEKFKGKATLTADKSSSTAYMQLSSLTSDDSAVYFCASGNYDTYWGQGTLVTVSA VL: DVVMTQTPLSLPVSLGDQASISCRSSQSLVHSNGNTYLHWYLQKPGQSPKLLIYKVSNRFSGVPDRFSGSGSGTDFTLKISRVEAEDLGVYFCSQSTHVPRTFGGGTKLEIK | – | – | – | – | EC50 [3]: 6.56 nM; Saturation point [3]: 3.17
4 | hu1E4(V3_VL2) (antibody, human IgG1, V domains shown, Monospecific; human IgG1 and kappa constant regions) VH: QVQLVQSGAEVKKPGASVKVSCKASGYAFTNYLIEWVKQAPGQGLEWIGVINPGSGGTNYNEKFKGKVTLTADKSISTAYMELSRLRSDDTAVYYCASGNYDTYWGQGTLVTVSS VL: DVVMTQTPLSLSVTPGQPASISCRSSQSLVHSNGNTYLHWYLQKPGQSPQLLIYKVSNRFSGVPDRFSGSGSGTDFTLKISRVEAEDVGVYYCSQSTHVPRTFGQGTKLEIK | – | – | – | – | EC50 [1]: 0.577 nM
5 | hu1E4(V7_VL2) (antibody, human IgG1, V domains shown, Monospecific; human IgG1 and kappa constant regions) VH: QVQLVQSGAEVKKPGASVKVSCKASGYAFTNYLIEWVKQAPGQGLEWMGVINPGSGGTNYNEKFKGKATLTADKSISTAYMELSRLRSDDTAVYYCASGNYDTYWGQGTLVTVSS VL: DVVMTQTPLSLSVTPGQPASISCRSSQSLVHSNGNTYLHWYLQKPGQSPQLLIYKVSNRFSGVPDRFSGSGSGTDFTLKISRVEAEDVGVYYCSQSTHVPRTFGQGTKLEIK | – | – | – | – | EC50 [1]: 0.339 nM
6 | hu1E4(V3_VL2) x Grabody B (bispecific antibody, human IgG1, kappa, also called hu1E4(V3 VL2) × Grabody B) heavy 1: not shown heavy 2: not shown light: DVVMTQTPLSLSVTPGQPASISCRSSQSLVHSNGNTYLHWYLQKPGQSPQLLIYKVSNRFSGVPDRFSGSGSGTDFTLKISRVEAEDVGVYYCSQSTHVPRTFGQGTKLEIKRTVAAPSVFIFPPSDEQLKSGTASVVCLLNNFYPREAKVQWKVDNALQSGNSQESVTEQDSKDSTYSLSSTLTLSKADYEKHKVYACEVTHQGLSSPVTKSFNRGEC | 0.0982 | 0.000992 | 1.01e+07 | – | EC50 [5]: 0.285 nM
7 | hu1E4(V5_VL4) x Grabody B (bispecific antibody, human IgG1, kappa, also called hu1E4(V5 VL4) × Grabody B) heavy 1: not shown heavy 2: not shown light: DVVMTQSPLSLPVTLGQPASISCRSSQSLVHSNGNTYLHWYQQRPGQSPRLLIYKVSNRFSGVPDRFSGSGSGTDFTLKISRVEAEDVGVYYCSQSTHVPRTFGGGTKVEIKRTVAAPSVFIFPPSDEQLKSGTASVVCLLNNFYPREAKVQWKVDNALQSGNSQESVTEQDSKDSTYSLSSTLTLSKADYEKHKVYACEVTHQGLSSPVTKSFNRGEC | 0.167 | 0.0016 | 9.96e+06 | 0.284 | –
8 | hu1E4(V5_VL3) x Grabody B (bispecific antibody, human IgG1, kappa, also called hu1E4(V5 VL3) × Grabody B) heavy 1: not shown heavy 2: not shown light: DVVMTQSPLSLPVTLGQPASISCRSSQSLVHSNGNTYLHWFQQRPGQSPRRLIYKVSNRFSGVPDRFSGSGSGTDFTLKISRVEAEDVGVYYCSQSTHVPRTFGGGTKVEIKRTVAAPSVFIFPPSDEQLKSGTASVVCLLNNFYPREAKVQWKVDNALQSGNSQESVTEQDSKDSTYSLSSTLTLSKADYEKHKVYACEVTHQGLSSPVTKSFNRGEC | – | – | – | 1.1 | –
9 | hu1E4(V2_VL2) x Grabody B (bispecific antibody, human IgG1, kappa, also called hu1E4(V2 VL2) × Grabody B) heavy 1: not shown heavy 2: not shown light: DVVMTQTPLSLSVTPGQPASISCRSSQSLVHSNGNTYLHWYLQKPGQSPQLLIYKVSNRFSGVPDRFSGSGSGTDFTLKISRVEAEDVGVYYCSQSTHVPRTFGQGTKLEIKRTVAAPSVFIFPPSDEQLKSGTASVVCLLNNFYPREAKVQWKVDNALQSGNSQESVTEQDSKDSTYSLSSTLTLSKADYEKHKVYACEVTHQGLSSPVTKSFNRGEC | – | – | – | – | EC50 [5]: 0.364 nM
10 | hu1E4(V5_VL5) x Grabody B (bispecific antibody, human IgG1, kappa, also called hu1E4(V5 VL5) × Grabody B) heavy 1: not shown heavy 2: not shown light: DVVMTQSPLSLPVTLGQPASISCRSSQSLVHSNGNTYLHWYQQRPGQSPRLLIYKVSNRFSGVPDRFSGSGSGTDFTLKISRVEAEDVGVYFCSQSTHVPRTFGGGTKVEIKRTVAAPSVFIFPPSDEQLKSGTASVVCLLNNFYPREAKVQWKVDNALQSGNSQESVTEQDSKDSTYSLSSTLTLSKADYEKHKVYACEVTHQGLSSPVTKSFNRGEC | 0.059 | 0.00067 | 1.14e+07 | 0.215 | –

Further lines, with some results ahead:

Row | Kd [4] [nM] | koff [4] [s⁻¹] | kon [4] [M⁻¹ s⁻¹] | EC50 [6] [nM] | Binder | further results
11 | – | – | – | 1.12 | hu1E4(V6_VL3) x Grabody B (bispecific antibody, human IgG1, kappa, also called hu1E4(V6 VL3) × Grabody B) heavy 1: not shown heavy 2: not shown light: DVVMTQSPLSLPVTLGQPASISCRSSQSLVHSNGNTYLHWFQQRPGQSPRRLIYKVSNRFSGVPDRFSGSGSGTDFTLKISRVEAEDVGVYYCSQSTHVPRTFGGGTKVEIKRTVAAPSVFIFPPSDEQLKSGTASVVCLLNNFYPREAKVQWKVDNALQSGNSQESVTEQDSKDSTYSLSSTLTLSKADYEKHKVYACEVTHQGLSSPVTKSFNRGEC | –
12 | 0.143 | 0.0015 | 1.05e+07 | – | hu1E4(V7_VL2) x Grabody B (bispecific antibody, human IgG1, kappa, also called hu1E4(V7 VL2) × Grabody B) heavy 1: not shown heavy 2: not shown light: DVVMTQTPLSLSVTPGQPASISCRSSQSLVHSNGNTYLHWYLQKPGQSPQLLIYKVSNRFSGVPDRFSGSGSGTDFTLKISRVEAEDVGVYYCSQSTHVPRTFGQGTKLEIKRTVAAPSVFIFPPSDEQLKSGTASVVCLLNNFYPREAKVQWKVDNALQSGNSQESVTEQDSKDSTYSLSSTLTLSKADYEKHKVYACEVTHQGLSSPVTKSFNRGEC | EC50 [5]: 0.418 nM

Reference: US20220380446A1 (ABL BIO, published 2022)
